{"source": "the nanobody polyreactivity screen of Harvey et al. (2022)", "data": [{"assay": "yeast display, Sf9 membrane polyspecificity reagent, FACS + sequencing; frameworks hold sequencing errors", "in_short": "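Polyreactivity labels are assigned by the sorting gate from which each nanobody was recovered. The gates were low and high (top ~1%), set on anti-HA fluorescence for expression and streptavidin fluorescence for reagent binding. Before sorting, galactose-induced (36–48 hours) yeast display cells were stained for 1 hour at 4 °C with 10% biotinylated, detergent-solubilized Sf9 membrane reagent.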", "values": [{"sequence": "QVQLVESGGGLVQAGGSLRLSCAASGRIFFVNAMGWYRQAPGKERELVAAISRGGTTYYADSVKGRFTISRDNAKNTVYLQMNSLKPEDTAVYYCNVAYTPSFYRYDYWGQGTQVTVSS", "polyreactivity (PSR sort gate)": "low polyreactivity"}, {"sequence": "QVQLVESGGGLVQAGGSLRLSCAASGRIFFVNAMGWYRQAPGKERELVAAISSGGSTNYADSVKGRFTISRDNAKNTVYLQMNSLKPEDTAVYYCASSHYRYGTQGYDYWGQGTQVTVSS", "polyreactivity (PSR sort gate)": "low polyreactivity"}, {"sequence": "QVQLVESGGGLVQAGGSLRLSCAASGRIFFVYAMGWYRQAPGKERELVAAITSSGGGTYYADSVKGRFTISRDNAKNTVYLQMNSLKPEDTAVYYCATRYPYRPGYEYWGQGTQVTVSS", "polyreactivity (PSR sort gate)": "low polyreactivity"}, {"sequence": "QVQLVESGGGLVQAGGSLRLSCAASGRIFFVYAMGWYRQAPGKERELVAGIRSSGGSTYYADSVKGRFTISRDNAKKTVYLQMNSLKPEDTAVYYCAARRVGYPSPYSTYGMYYWGQGTQVTVSS", "polyreactivity (PSR sort gate)": "high polyreactivity"}, {"sequence": "QVQLVESGGGLVQAGGSLRLSCAASGRIFFVYAMGWYRQAPGKERELVAGIRSSGGSTYYADSVKGRFTISRDNAKNTVYLQMNSLKPEDTAVYYCAARRVGYPSPYSTYGMYYWGQGTQVTVSS", "polyreactivity (PSR sort gate)": "high polyreactivity"}, {"sequence": "QVQLVESGGGLVQAGGSLRLSCAASGRIFFYNDMGCYRQAPGKERELVASISSGTSTYYADSVKGRFTISRDNAKNTVYLQMNSLKPEDTAVYYCATGRPWHYSSATYDYWGQGTQVTVSS", "polyreactivity (PSR sort gate)": "low polyreactivity"}, {"sequence": "QVQLVESGGGLVQAGGSLRLSCAASGRIFFYNGMGWYRQAPGKERELVAAINRSGGSTYYADSVKGRFTISRDNAKNTVYLQMNSLKPVDTAVYYCNAASFTVPMDFWGQGTQVTVSS", "polyreactivity (PSR sort gate)": "low polyreactivity"}, {"sequence": "QVQLVESGGGLVQAGGSLRLSCAASGRIFFYNTKGWYRQAPGKERELVAVISSSDGSTYADSVKGRFTISRDNAKNTVYLQMNSLKPEDTAVYYCNAGWTRYVPYVRMDYWGHGTQVTVSS", "polyreactivity (PSR sort gate)": "high polyreactivity"}, {"sequence": "QVQLVESGGGLVQAGGSLRLSCAASGRIFFYYAMGWYRQAPGKERELVAAISSGGGSTYYADSVKGRFTISRDNAKNTVYLQMNSLKPEDTAVYYCAARTYRRRYLGWSQYVGPYDYWGQVTQVTVSS", "polyreactivity (PSR sort gate)": "high polyreactivity"}, {"sequence": "QVQLVESGGGLVQAGGSLRLSCAASGRIFGAYAKGWYRQAPGTERELVAAISGSGGSTSYADSVKGRFTISRDNAKNTVYLQMNSLKPEDTAVYYCNAVSYVDIWDDRRYYYWVQGTQVTVSS", "polyreactivity (PSR sort gate)": "low polyreactivity"}, {"sequence": "QVQLVESGGGLVQAGGSLRLSCAASGRIFGAYAMGWYRQAPGKERELVAAITQSGGSTFYADSVKGRFTISRDNAKNTVYLQMNSLKPEDTAVYYWGQGTQVTVSS", "polyreactivity (PSR sort gate)": "low polyreactivity"}, {"sequence": "QVQLVESGGGLVQAGGSLRLSCAASGRIFGAYAMGWYRQAPWKERELVAAITSRGGNTYYADSVKGRFTISRDNAKNTVYLQMNSLKPEDTAVYYCAARHDKRRQYYVGQSAFDYWGQGTQVTVSS", "polyreactivity (PSR sort gate)": "low polyreactivity"}, {"sequence": "QVQLVESGGGLVQAGGSLRLSCAASGRIFGAYTMGWYRQAPGKEREFVAAITQSGGSTYYADSVKGRFTISRDNAKNTVYLQMNSLKPEDTAVYYCAATRYVLVGWRYAVWYDYWGQGTQVTVSS", "polyreactivity (PSR sort gate)": "high polyreactivity"}, {"sequence": "QVQLVESGGGLVQAGGSLRLSCAASGRIFGDNAMGWSRQAPGKEWELVAAITVNAGSTHYAASVKGRFTISRDNAKNTVYLQMNSLKPEDTAVYYCAKQTAPVTGVGPYFYWGQGTQVTVSS", "polyreactivity (PSR sort gate)": "low polyreactivity"}, {"sequence": "QVQLVESGGGLVQAGGSLRLSCAASGRIFGDYAMGWYRQAPGKERELVADITWSGGSTYYADSVKGRFTISRDNAKNTVYLQMNSLKPEDTAVYYCNADYDGGYYGDLSLYDYWGQGSQVTVSS", "polyreactivity (PSR sort gate)": "low polyreactivity"}, {"sequence": "QVQLVESGGGLVQAGGSLRLSCAASGRIFGDYGMGWYRQAPGKERELVAAITDRGGTTYYADSVKGRFTISRDNAKNTVFLQMNSLKPEDTAVYYCNARQSDIFDYDYWGKGTQVTVSS", "polyreactivity (PSR sort gate)": "low polyreactivity"}, {"sequence": "QVQLVESGGGLVQAGGSLRLSCAASGRIFGENALGWYRQAPGKEREFVAVISISDASTYYADSVKGRFTISRDNAKNTVYLQMISLKPEDTAVYYCAAELTDFLYVASDYWGQGTQVTVSS", "polyreactivity (PSR sort gate)": "low polyreactivity"}, {"sequence": "QVQLVESGGGLVQAGGSLRLSCAASGRIFGENAMGWYRQAPGKERELVAAITWSGTSTYYADSVKGRFTISRDNAKNTVYLQMNSLKPEDTAVDYCAASATLFSSRGKRYYWGQGTQVTVSS", "polyreactivity (PSR sort gate)": "low polyreactivity"}, {"sequence": "QVQLVESGGGLVQAGGSLRLSCAASGRIFGEYAMGWYRQAPGKERELVAAISGGGSTYYADSVKGRFTISRDNAKNTVYLQMNSLKPEETAVYYCAVYSVYHEYDYWGHGTQVTVSS", "polyreactivity (PSR sort gate)": "low polyreactivity"}, {"sequence": "QVQLVESGGGLVQAGGSLRLSCAASGRIFGFYAMGWSRQAPGKERELVPGITGSGDGTYADSVKGRFTISRDNAKNTVYLQMNSLKPEDTAVYYCAADYAVGKHWRYGTYRGHYWGQGTQVTVSS", "polyreactivity (PSR sort gate)": "low polyreactivity"}, {"sequence": "QVQLVESGGGLVQAGGSLRLSCAASGRIFGGNAMGWYRPAPGKERELVAAISKRGGSTYYADSVKGRFTISRDNAKNTVYLQMNSLKPEDSAVYYCAATAYADQGLDYGYWGQGTQVTVSS", "polyreactivity (PSR sort gate)": "high polyreactivity"}, {"sequence": "QVQLVESGGGLVQAGGSLRLSCAASGRIFGGNAMGWYRQAPGKERELVAAISRNGGRTYYADSVKGRFTISRDNEKNTVYLQKNSLKPEDTAFYYCNAGYKEPHYYYWGQGTQVTVSS", "polyreactivity (PSR sort gate)": "high polyreactivity"}, {"sequence": "QVQLVESGGGLVQAGGSLRLSCAASGRIFGGNAMGWYRQAPGKERELVAAITTRGGSTYADSVKGRFTISRDNAKNTVYLQMNSLKPEDTAVYYCNKRYVIRRRGYDYWGQGTQVTVSS", "polyreactivity (PSR sort gate)": "low polyreactivity"}, {"sequence": "QVQLVESGGGLVQAGGSLRLSCAASGRIFGGNTMGWYRQAPGKERELVAAITSGGSTTYADSVKGRFTISRDNAKNTVYLHMNSLKPEDSEVYYCAARYVYPHQWTPYIRPYDYWGQGTQVTVSS", "polyreactivity (PSR sort gate)": "low polyreactivity"}, {"sequence": "QVQLVESGGGLVQAGGSLRLSCAASGRIFGGNVMGWNRQATWKERELVAFITRGTRTNYADSVKGRFTISRDNAKNTVYLQMNSLKPEDNAVFYCAADSRNSRQHTSYNSLNYWGQGTQVTVSS", "polyreactivity (PSR sort gate)": "high polyreactivity"}, {"sequence": "QVQLVESGGGLVQAGGSLRLSCAASGRIFGGYAMGWYRQAPGKERELVAAISSRGGSTYYADSVKGRFTISRDNAKNTVYLQMNSLNPEDTAVYYCARTKYGRYRYGEYDYWGQGTQVTVSS", "polyreactivity (PSR sort gate)": "high polyreactivity"}, {"sequence": "QVQLVESGGGLVQAGGSLRLSCAASGRIFGGYAMGWYRQAPGKERELVAAISWRGGTTYYADSVKGRFTISRDNAKNTVYLQMNSLKQEDTAVYYCNADVVRYRHWHRGDYWGQGTQVTVSS", "polyreactivity (PSR sort gate)": "low polyreactivity"}, {"sequence": "QVQLVESGGGLVQAGGSLRLSCAASGRIFGGYAMGWYRQAPGKERELVAAITSAGGTNYADSVKGRFTISRDNAKNTVYLQMNSLKPEDTAVYYCAALRDRDITVYYDTGRMYYWGQGTQVTVSS", "polyreactivity (PSR sort gate)": "low polyreactivity"}, {"sequence": "QVQLVESGGGLVQAGGSLRLSCAASGRIFGGYAMGWYRQAPGKERELVATITANGGRTRYADSVKGRFTISRDNAKNTVYLQMNSLKPEDTAVYYCARVYYSSSGYGYWGQGTQVTVSS", "polyreactivity (PSR sort gate)": "high polyreactivity"}, {"sequence": "QVQLVESGGGLVQAGGSLRLSCAASGRIFGGYAMGWYRQAPGKERELVAVITDGGSTNYADSVKGRFTISRDNAKNTVYLQMNSLKPEDTAVYYCAADDRIYPRGYDKMDYWGQGTQVTVSS", "polyreactivity (PSR sort gate)": "low polyreactivity"}, {"sequence": "QVQLVESGGGLVQAGGSLRLSCAASGRIFGGYTMGSYRQAPGKERELVAAITRSDGSTTYADSVKGRFTISRDNAKNTVSLQMNSMKPEDTAVYYCAAPRASGYYWGQCTQVTVSS", "polyreactivity (PSR sort gate)": "high polyreactivity"}, {"sequence": "QVQLVESGGGLVQAGGSLRLSCAASGRIFGGYTMGWYRQAPGKEREFVATISRSSGSTYYADSVKGRFTISRDNAKNTVYLQMNSLKPEDTAVYYCAAVYLYATGYDYWGQGTQVTVSS", "polyreactivity (PSR sort gate)": "high polyreactivity"}, {"sequence": "QVQLVESGGGLVQAGGSLRLSCAASGRIFGGYTMGWYRQAPGNERELVAAINSGGSTYYADSVKGRFTISRDNAKITVYLQMNSLKPEDTAVYYCAKVRSYFGKYGYGYWGQGTQVTVSS", "polyreactivity (PSR sort gate)": "high polyreactivity"}, {"sequence": "QVQLVESGGGLVQAGGSLRLSCAASGRIFGGYVMGWYRQAPGKERELVAAISRRGGSTYYADSVKGRFTISRDNAKNTVYLQMNSLKPEDTAVYYCNVASFSYSYKFDYWGQGTQVTVSS", "polyreactivity (PSR sort gate)": "high polyreactivity"}, {"sequence": "QVQLVESGGGLVQAGGSLRLSCAASGRIFGHYAMGWYRQAPGKETELVASISWRGGRTYYADSVKGRFTISRDNAKNTVYLQMNSLKPEDTAVYYCAARVNYKPYADYYYWGQGTQVTVSS", "polyreactivity (PSR sort gate)": "high polyreactivity"}, {"sequence": "QVQLVESGGGLVQAGGSLRLSCAASGRIFGINARGWYRPAPGKERELVAAINWSGGSTYYADSVKGRFTISRDNAKNTVYLHMNSLKPEDTAVYYCAADFYRRYYRYGYWGQGTQVTVSS", "polyreactivity (PSR sort gate)": "high polyreactivity"}, {"sequence": "QVQLVESGGGLVQAGGSLRLSCAASGRIFGINVMGWYRQAPGKERELVARITGRGGRTYYADSVKGRFTISRDNAKNTVYLQMNSLKPEDTAVYYCAADARYEAYDYWGQGTQVTVSS", "polyreactivity (PSR sort gate)": "high polyreactivity"}, {"sequence": "QVQLVESGGGLVQAGGSLRLSCAASGRIFGIYAMGWYRQAPGKERELVASITGSSGSTNYADSVKGRFTISRDNAKNTVYLQMNSLKPEDTAVYYCAADIPSYYWWRAYDYWGQGTQVTVSS", "polyreactivity (PSR sort gate)": "low polyreactivity"}, {"sequence": "QVQLVESGGGLVQAGGSLRLSCAASGRIFGKNAMGWYRQAPGKERELVAAIRGNGGSTYYADSVKGRFTISRDNAKNTVYLQFNSLKPEDTAVYYCAARASAYFGRYYLYDYWGQGTQVTVSS", "polyreactivity (PSR sort gate)": "high polyreactivity"}, {"sequence": "QVQLVESGGGLVQAGGSLRLSCAASGRIFGKYAMGWYRQAPGKERELVAAIRITGGSTYYADSVKGRFTISRDNAKNTVYLEMNSLKPEDTAVYYCAAVYLKTYYWGQGTQVTVSS", "polyreactivity (PSR sort gate)": "high polyreactivity"}, {"sequence": "QVQLVESGGGLVQAGGSLRLSCAASGRIFGLYAMGWYRQAPGKERELVAAITRGGRTNYADSVKGRFTISRDNAKNTVYLQMNSLKPEDTAVYYCAADYRYTRGRRDYWGQGTQVTVSS", "polyreactivity (PSR sort gate)": "high polyreactivity"}, {"sequence": "QVQLVESGGGLVQAGGSLRLSCAASGRIFGLYAMGWYRQATGKERELVAAISSSGGRTYYADSVKGRFTISRDNAKNTVYLQMNSLKPEDTAVYYCAAVYYYRRDGNGYWGQGTQVTVSS", "polyreactivity (PSR sort gate)": "high polyreactivity"}, {"sequence": "QVQLVESGGGLVQAGGSLRLSCAASGRIFGLYAMGWYSQAPGKERELVAAISRGGGSTYYSDSVMGRFTISRDNAKNTVYLQMKSLKPEVTAVYYCATGLGYFSRLDYWGQGTQVTVSS", "polyreactivity (PSR sort gate)": "low polyreactivity"}]}]}
